The target in the series is thrombin (UniProt P00734;P00734 315-363;364-622). As to the kind of experiment: fluorescence polarization.

For orientation: Kd means the equilibrium constant for the complex coming apart.

B1: TBA(3)-2b (structured_DNA)
DNA: GGTTGGTGTGGTTGG
modifications: T3 replaced by 5-ethynyl-dU clicked to inactivated N-acyl sulfonamide 2b
Consider B1, for which the Kd was found to be 395 nM.

The values above are taken from article PMC8260448.
